Legend:
Asp143 = Asp143 (UniProt position 143, LSGFVDGTENP); assay: kinetics; conditions: 25 °C; 2 µM enzyme in 5 mM phosphate citrate buffer, pH 7.0, mixed with H2O2 in 100 mM phosphate citrate buffer, pH 3.0-8.0, or 100 mM glycine NaOH buffer, pH 8.0-10.0; ferric high-spin resting enzyme, folded, reacting with H2O2
[1] = biological target: KpDyP variant R232A (Klebsiella pneumoniae); assay: SEC-MALS; HPLC-SEC combined with multiangle light scattering; data not shown; conditions not given
[2] = biological target: KpDyP double variant D143A/R232A (Klebsiella pneumoniae); assay: as above
[3] = biological target: KpDyP variant D143A (Klebsiella pneumoniae); assay: as above
[4] = biological target: the molecule itself; assay: as above

In the case of “B-class dye-decolorizing peroxidase (KpDyP) (Klebsiella pneumoniae)”, the pKa (Asp143) is reported as “far below 4.0”.

For KpDyP variant R232A (enzyme), the stoichiometry N [1] was 2.

Molecule “KpDyP double variant D143A/R232A (enzyme)” has a stoichiometry N [2] of 2.

In the case of KpDyP variant D143A (enzyme), the stoichiometry N [3] is reported as 2.

B1: WT B-class dye-decolorizing peroxidase from Klebsiella pneumoniae (KpDyP) (enzyme, UniProt A0A0W8ATM9 1-299, looked up)
chain: MSQVQSGILPEHCRAAIWIEANLKGDVNALREASKIFVDNVATFQAKFPDAKLGAVVAFGNNVWRQLSGGEGADELKDFPVYGKGLAPSTQYDLLIHILSARHEVNFSVAQAALAAFGDAIDVKEEIHGFRWVEERDLSGFVDGTENPAGEETRREVAVIKDGVDAGGSYVFVQRWEHNLKQLNRMSVPDQEMMIGRTKDANEEIDGDERPVTSHLSRVDLKEDGKGLKIVRQSLPYGTASGTHGLYFCAYCARLYNIEQQLLSMFGDTDGKRDAMLRFTKPVTGGYYFAPSLERIQAL
notes: B-class dye-decolorizing peroxidase (KpDyP), Klebsiella pneumoniae; codon-optimized DNA cloned into pGEX-6P1 with primers that run from the ATG start to the stop codon; about 35 kDa per subunit; One heme b per subunit; also called WT KpDyP; source: E. coli BL21 (DE3) pLysS, purified (GSTrap, on-column HRV 3C cleavage, SEC)
B1 was tested, and the “stoichiometry N” value [4] was 2.

From paper PMC6153280, “Roles of distal aspartate and arginine of B-class dye-decolorizing peroxidase in heterolytic hydrogen peroxide cleavage” (The Journal of Biological Chemistry, 2018)
